In series [1] the target is APOL1 G0 (human) (UniProt O14791).
The target in series [2] is APOL1 LZA 1 (human) (UniProt O14791).
Series [3] deals with the molecule itself. The series is described as follows: cross-linking; untreated control protein (lane c): thawed on ice from -80 °C and immediately diluted into SDS sample buffer; nonreducing SDS-PAGE, silver stain.
Series [4] concerns the molecule itself. The series can be described thus: cross-linking; disulfide trapping between substituted cysteines, no membranes; protein (~0.159 uM) in 0.2 ml buffer (5 mM succinate, 5 mM Hepes, 0.5 mM KCl, 5 mM CaCl2), room temperature, 1 h at pH 5.6 followed by 1 h at pH 7.2; nonreducing SDS-PAGE, silver stain.

Where a chain is given by its changes, count along the chain named. Numbers in names are those of the source.

B1: APOL1 G0 (natural protein)
chain: EEAGARVQQNVPSGTDTGDPQSKPLGDWAAGTMDPESSIFIEDAIKYFKEKVSTQNLLLLLTDNEAWNGFVAAAELPRNEADELRKALDNLARQMIMKDKNWHDKGQQYRNWFLKEFPRLKSKLEDNIRRLRALADGVQKVHKGTTIANVVSGSLSISSGILTLVGMGLAPFTEGGSLVLLEPGMELGITAALTGITSSTIDYGKKWWTQAQAHDLVIKSLDKLKEVKEFLGENISNFLSLAGNTYQLTRGIGKDIRALRRARANLQSVPHASASRPRVTEPISAESGEQVERVNEPSILEMSRGVKLTDVAPVSFFLVLDVVYLVYESKHLHEGAKSETAEELKKVAQELEEKLNILNNNYKILQADQEL
In turn, B1 returned a trypanosome lysis (T. b. brucei, 24 h), IC50 in series [1] of 0.125 µg/mL.

B2: APOL1 LZA 1 (natural protein)
chain: B1 chain with L344A
B2: the trypanosome lysis (T. b. brucei, 24 h), IC50 in series [2] came out at 0.6 µg/mL.

B3: APOL1 LZA A375C (natural protein, human, UniProt O14791 28-398, looked up)
chain: B1 chain with L344A, A348C, L351A, L358A, L365A
notes: Apolipoprotein L-I (APOL1) G0, human, aa 28-398, isoform K150, I228, K255 (GenBank AAI12944.2), every d position leucine of the ZIP domain to alanine plus A375C; Disulfide dimers were already present in the starting material (formed during purification); source: E. coli BL21-DE3-RIPL, purified (nickel-chelate chromatography, SEC); not shown: His6, N-terminal, kept
As a reminder, the stoichiometry N is the number of molecules, sites or subunits per partner or assembly. Take B3: the “stoichiometry N” value in series [3] is 2.

B4: APOL1 A363C (natural protein, human, UniProt O14791 28-398, looked up)
chain: B1 chain with A336C
notes: Apolipoprotein L-I (APOL1) G0, human, aa 28-398, isoform K150, I228, K255 (GenBank AAI12944.2); Cysteine in the predicted turn region between the pore-lining region and the ZIP domain, outside the ZIP domain; source: E. coli BL21-DE3-RIPL, purified (nickel-chelate chromatography, SEC); not shown: His6, N-terminal, kept
B4: the binding result in series [4] was “binds”.

B5: APOL1 A375C (natural protein, human, UniProt O14791 28-398, looked up)
chain: B1 chain with A348C
notes: Apolipoprotein L-I (APOL1) G0, human, aa 28-398 (without the signal peptide), most common isoform K150, I228, K255 (GenBank AAI12944.2); Cysteine at the a position of the C-terminal leucine zipper (ZIP) domain; APOL1 has no endogenous cysteines; Stored with 1 mM DTT in the SEC buffer; also called apolipoprotein L-I A375C; source: E. coli BL21-DE3-RIPL, purified (nickel-chelate chromatography, …)
In the case of B5, the “stoichiometry N” value in series [4] turned out to be 2.

Source of the values: paper PMC8446801, “Coiled-coil binding of the leucine zipper domains of APOL1 is necessary for the open cation channel conformation” (The Journal of Biological Chemistry, 2021).
